Consider two molecules from paper PMC7735993, “Role of Arabidopsis Splicing factor SF1 in Temperature-Responsive Alternative Splicing of FLM pre-mRNA”.

The target in the series is His-AtSF1(1-562) (Arabidopsis thaliana, UniProt Q9LU44 1-562). Nature of the series: EMSA; 23 C; unlabeled self competitor (10-200x) reduces shift; LightShift Chemiluminescent RNA EMSA kit, 23 C, 30 min, 8% native PAGE; buffer, salt and pH not stated. Particulars: protein: recombinant; tags: His; label: 3' biotin. For orientation: In EMSA bound probe runs differently from free probe, usually more slowly.
His-AtSF1(1-562), sequence (Q9LU44 1-562): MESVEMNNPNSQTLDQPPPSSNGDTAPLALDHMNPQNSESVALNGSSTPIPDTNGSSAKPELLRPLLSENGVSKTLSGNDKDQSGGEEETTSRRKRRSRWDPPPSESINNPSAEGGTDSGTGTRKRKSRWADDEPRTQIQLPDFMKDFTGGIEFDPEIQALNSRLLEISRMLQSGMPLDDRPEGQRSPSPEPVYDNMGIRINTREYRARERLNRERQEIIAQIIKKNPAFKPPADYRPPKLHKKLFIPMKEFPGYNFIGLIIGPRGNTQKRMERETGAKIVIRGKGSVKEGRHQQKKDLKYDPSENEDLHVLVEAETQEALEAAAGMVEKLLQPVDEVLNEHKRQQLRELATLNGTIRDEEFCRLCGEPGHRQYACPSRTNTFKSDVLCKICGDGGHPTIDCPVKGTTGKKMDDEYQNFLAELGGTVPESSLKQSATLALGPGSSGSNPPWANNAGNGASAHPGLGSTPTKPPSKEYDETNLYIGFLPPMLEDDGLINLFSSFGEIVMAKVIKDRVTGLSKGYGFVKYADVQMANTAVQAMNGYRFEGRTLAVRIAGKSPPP

On to UUCUAAUAUUCUUCUGGAUGCGGUUUUUGGUGUUAU (ssRNA) [FLM BP2], for which the binding result is on record as “binds”.

In the case of UUCUAAUGCAUUUUUGUUUUAUCU (ssRNA) [FLM BP1], the binding result is given as “binds”.
